Target: transferrin receptor 1 (mouse (endogenous in 4T1)) (UniProt Q62351)
Sequence of UniProt Q62351 (Q62351 whole entry): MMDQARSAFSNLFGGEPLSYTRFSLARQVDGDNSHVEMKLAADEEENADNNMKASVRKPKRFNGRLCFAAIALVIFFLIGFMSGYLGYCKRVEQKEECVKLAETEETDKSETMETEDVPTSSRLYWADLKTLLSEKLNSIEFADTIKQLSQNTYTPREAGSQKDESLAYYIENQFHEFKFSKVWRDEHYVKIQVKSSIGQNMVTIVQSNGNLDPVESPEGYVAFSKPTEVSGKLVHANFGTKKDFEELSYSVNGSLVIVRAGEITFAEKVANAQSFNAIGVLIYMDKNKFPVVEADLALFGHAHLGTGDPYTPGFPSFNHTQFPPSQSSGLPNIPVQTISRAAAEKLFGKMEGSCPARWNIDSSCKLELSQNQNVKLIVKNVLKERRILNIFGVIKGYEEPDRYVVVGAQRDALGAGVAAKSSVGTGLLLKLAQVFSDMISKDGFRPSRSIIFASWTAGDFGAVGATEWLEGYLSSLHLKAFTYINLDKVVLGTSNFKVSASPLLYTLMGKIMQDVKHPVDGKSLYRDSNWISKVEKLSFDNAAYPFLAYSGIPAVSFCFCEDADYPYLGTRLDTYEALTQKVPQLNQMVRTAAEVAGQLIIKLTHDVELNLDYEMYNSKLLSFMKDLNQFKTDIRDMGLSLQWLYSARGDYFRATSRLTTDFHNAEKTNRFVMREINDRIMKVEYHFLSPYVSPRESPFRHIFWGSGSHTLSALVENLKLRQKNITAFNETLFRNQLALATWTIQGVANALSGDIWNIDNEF

- decrease in FITC fluorescence accumulation (uptake, flow cytometry) in BSA-Man-Ft-FITC@Lap-treated 4T1 cells under pH 6.5 after pre-treatment with TfR1 antibody: 67%
- mean fluorescence intensity of FITC in 4T1 cells (CLSM) treated with BSA-Man@Mn2+-Ft-FITC@Lap, pH 6.5 group against pH 7.4 group: 3 fold
Substance: ferritin (FITC-labelled, β-lapachone-loaded ferritin units, Ft-FITC@Lap) (from UniProt Q8MIP0 1-182; P02791 1-175) (natural protein)
